Measurements reported in patent US20240315219A1, “ANIMAL MODEL FOR DISEASES ASSOCIATED WITH ABSENCE OR REDUCTION OF SOCIAL DOMINANCE, AND PHARMACEUTICAL COMPOSITION FOR PREVENTING OR TREATING DISEASES” (ADEL, Inc., priority 2021, published 2024).

What was measured:
[1] = system: CRTC3 KO primary astrocytes; test: Cell shape index (CSI) of astrocytes, GFAP immunocytochemistry; type: cell-based, mouse; settings: AREG 200 ng/ml, vs WT astrocytes
Experimental: Next, to identify localization of CRTC3 in the cellular changes induced in astrocytes, comparison of astrocyte shape was performed between the CRTC3 KO mice and the WT mice. The shape of the cells was observed using GFAP as an astrocyte marker through fluorescent staining according to the method described in Experimental Example 1.4.
To more accurately compare the astrocyte shapes, complexity of the astrocyte shape was determined using the cell shape index (CSI) defined as follows (in the formula, P is a cell's perimeter and A is a cell's area).
Immunocytochemistry was performed as follows. First, a 12 mm coverslip (Marienfeld, Germany) coated with PDL was placed in a 24-well plate, and cells were plated thereon. Then, the cells were fixed with 4% paraformaldehyde (Biosesang, Korea) for 10 minutes. The cells were washed three times with PBS, and then subjected to permeabilization with PBS containing 0.1% Triton X-100 for 5 minutes at room temperature. The cells were washed again three times and blocked with PBS containing 5% bovine serum albumin (BSA) at 37° C. for 30 minutes. The cells were washed three times and incubated with mouse anti-GFAP antibody (Chemicon-Millipore, USA) overnight at 4° C. […] Then, each sample was mounted using a fluorescence mounting solution (DAKO, USA) for imaging.

CRTC3 KO mice [2] = test: Warm spot test; type: in vivo, mouse; settings: ICV osmotic pump, before vs after
Experimental: The warm spot test was performed using the following apparatus and method. The test apparatus was a box with dimensions of 30 cm by 30 cm, and the bottom was kept cold by ice. A fan-shaped heating mat of approximately 3 cm was laid one corner of the bottom to warm only that part of the bottom. In the first test, the mice were placed in a box with all bottom surfaces cold and kept thereon for 30 minutes to get used to the environment. After 30 minutes, the mice were moved to a box with a heating mat on one corner of the bottom, and the time each mouse occupied the bottom surface with the heating mat was measured for 20 minutes. Based on the measured time, each mouse's ranking in the group was determined.
(§1) First, starting at 1 month of age, the CRTC3 KO mice and the WT mice were housed in one group and raised together for 2 months. This allowed social ranking to be naturally formed among the mice in the same group. To determine changes in ranking of the mice in the group, social dominance ranking was evaluated by a tube dominance test daily for 15 days starting at 3 months of age. The respective mice in the group were tested in turn, and dominance ranking of the mice in the group was determined based on their winning points. […]

CRTC3 KO mice [3] = test: Tube dominance test, CRTC3 KO mice housed with WT mice; type: in vivo, mouse
Experimental: (§2) The apparatus for the tube dominance test was made of a transparent plastic tube with a length of 30 cm and an inner diameter of 2.5 cm. To allow the mice to adapt to passing through the inside of the tube, the respective mice were trained to pass across the tube alternately on both sides for two or three consecutive days. During the training period, care was taken to ensure that the mice passed through the tube as naturally as possible without causing stress. This test was performed after identifying that all mice could freely pass through the tube without stress.
During the dominance test period, a total of 2 mice, one at each end of the tube, were placed to meet in the middle of the tube. In a case where one mouse pushed the other mouse out of the tube, one (1) winning point was earned. The test was repeated three times. […] For each test, win or loss was determined by winning points. […]
as §1, with “This allowed social ranking to be naturally formed among the mice in the same group.” left out

C57BL/6 mice = test: Tube dominance test, lowest-ranked mouse in C57BL/6 mouse group; type: in vivo; settings: lowest-ranked C57BL/6 mouse, intracerebroventricular via osmotic pump
Experimental: as §2
During the dominance test period, a total of 2 mice, one at each end of the tube, were placed to meet in the middle of the tube. In a case where one mouse pushed the other mouse out of the tube, one (1) winning point was earned. The test was repeated three times. […] For each test, win or loss was determined by winning points.
as §1, with “This allowed social ranking to be naturally formed among the mice in the same group.” left out

B1: AREG: Recombinant mouse amphiregulin from R&D Systems, SEQ ID NO: 11; EGF receptor ligand (protein, listed as Mus musculus)
chain: SVRVEQVIKPKKNKTEGEKSTEKPKRKKKGGKNGKGRRNKKKKNPCTAKFQNFCIHGECRYIENLEVVTCNCHQDYFGERCGEKSMKTHSEDDKDLSK
modifications: Mouse AREG Protein
notes: EGF receptor ligand
- cell shape index (CSI) [1]: increased a CSI level of the primary astrocytes in the CRTC3 KO mice to that of the WT astrocytes
- social dominance ranking in warm spot test after administration (CRTC3 KO mice [2]): increased social dominance ranking
- time occupying the warm spot after administration (CRTC3 KO mice [2]): increase in the time they occupied the warm spot
- cages in which changes (increase) in social dominance ranking were observed after administration (CRTC3 KO mice [3]; CRTC3 KO mice with low ranking, housed with WT mice, intracerebroventricular via osmotic pump): 81%
- winning points after vs before administration (CRTC3 KO mice [3]; CRTC3 KO mice, ICV osmotic pump): increase in winning points
- cages in which ranking of the lowest-ranked mouse increased after administration (C57BL/6 mice): 71%
